Results: publication PMC3658134
[ ]: non-standard residue; d: D form. Sec = N[C@@H](C[SeH])C(=O)O

Substrate: O=C1NC(=O)C(=O)C(=O)N1
Assay: Substrate specificity, NADPH consumption, wild-type TGR
Type: biochemical, Schistosoma mansoni
Conditions: pH 7.4; 25.0 °C

B1: wild-type TGR (SmTGR) (Schistosoma mansoni) (protein)
chain: MPPADGTSQWLRKTVDSAAVILFSKTTCPYCKKVKDVLAEAKIKHATIELDQLSNGSAIQKCLASFSKIETVPQMFVRGKFIGDSQTVLKYYSNDELAGIVNESKYDYDLIVIGGGSGGLAAGKEAAKYGAKTAVLDYVEPTPIGTTWGLGGTCVNVGCIPKKLMHQAGLLSHALEDAEHFGWSLDRSKISHNWSTMVEGVQSHIGSLNWGYKVALRDNQVTYLNAKGRLISPHEVQITDKNQKVSTITGNKIILATGERPKYPEIPGAVEYGITSDDLFSLPYFPGKTLVIGASYVALECAGFLASLGGDVTVMVRSILLRGFDQQMAEKVGDYMENHGVKFAKLCVPDEIKQLKVVDTENNKPGLLLVKGHYTDGKKFEEEFETVIFAVGREPQLSKVLCETVGVKLDKNGRVVCTDDEQTTVSNVYAIGDINAGKPQLTPVAIQAGRYLARRLFAGATELTDYSNVATTVFTPLEYGACGLSEEDAIEKYGDKDIEVYHSNFKPLEWTVAHREDNVCYMKLVCRKSDNMRVLGLHVLGPNAGEITQGYAVAIKMGATKADFDRTIGIHPTCSETFTTLHVTKKSGVSPIVSGC[Sec]G
modifications: not fully specified
- Km: 940 ± 90 µM
- kcat: 27.7 ± 0.8 s⁻¹
